The text below walks through data of the DeepSol protein solubility set.

The data set can be described thus: soluble on expression in E. coli; label from the status in PepcDB or PDB records.
On to “MGSDKIHHHHHHMELKKLMEHISIIPDYRQTWKVEHKLSDILLLTICAVISGAEGWEDIEDFGETHLDFLKQYGDFENGIPVHDTIARVVSCISPAKFHECFINWMRDCHSSDDKDVIAIDGKTLRHSYDKSRRRGAIHVISAFSTMHSLVIGQIKTDEKSNEITAIPELLNMLDIKGKIITTDAMGCQKDIAEKIQKQGGDYLFAVKGTQGRLNKAFEEKFPLKELNNPEHDSYAISEKSHGREEIRLHIVCDVPDELIDFTFEWKGLKKLCVAVSFRSIIAEQKKEPEMTVRYYISSADLTAEKFATAIRNHWHVENKLHWRLDVVMNEDDCKIRRGNAAELFSGIRHIAINILTNDKVFKAGLRRKMRKAAMDRNYLASVLAGSGLS”, for which the “soluble on expression in E. coli” value was “not soluble”.

Consider “MGRIFLDHIGGTRLFSCANCDTILTNRSELISTRFTGATGRAFLFNKVVNLQYSEVQDRVMLTGRHMVRDVSCKNCNSKLGWIYEFATEDSQRYKEGRVILERALVRESEGFEEHVPSDNS”, for which the “soluble on expression in E. coli” value is listed as “soluble”.

In the case of “MLGKSLVKEKITDSVVSSPNGLVLLAPEMTLPVDVEENKPEESKDSAHERNCATAGVESPSNPVDSCLKLTYVEEGDNDRESNLKLLDGSVEEKEDTKKLTDIDINSLPDEVDDSHADQSDTKEQEIDDKEDKTPLSDDGCEGKAEGTKESNQQPDSNKVDNSQPLGNGGTGEELGNRTLALKREVTPTLRASPRLIQRSWRTSRVNQKFTGTTNAVLLDSPHRCV”, the “soluble on expression in E. coli” value is “soluble”.

“MAHHHHHHMNTLGSSGSAGAEAPLVGGPDALTLQTINEQQLIILRQKELVSTLKECVEELGAQLRRAGVKPLEAAQKEDGCKGTLSYVSEMQLRRRVRTLEDENKKLSDLVDELRAEVSAISAQLCAQQLHTQSEKDVWKAKVSSAEAKSVATAHLLEATGKRNQQLVHHLETLRREGEVSAYECTQWRSLATTAVSHLDHANQRYARAQINSIEEDVHRYAVNRLRLVRVAASASLSLDSGTPEETRKIWSRSAQLPKLHPAPQVFQQQQQEPVCSPLHVSYKRPLSQLLPCQPPQPTTSYSLPPPTAEHVNAETHLSPSHCAALAQT”: the “soluble on expression in E. coli” value is recorded as “not soluble”.

For “MGSDKIHHHHHHMKVLHIFPSAFLGGSELCAIESIESLQKTGVENHVILPAEGAVINRLENLSVSYKIIQHNWWMSSKPWKTYLKVFMLKGFYSSAASIREYIKNNGIDVVITHSIVIPSGALGARLTNTPHVWYLHEYGDLDHQLKFEYGKSFSLNLINKLSKKIIVNSDALKKHFSKKLPAAKINRLYYSVNYPEFTPLTEKPSGELLLCMVGRIAKGKNQLVALKALALLKQEQIFPQLVFVGGADPDYLKLLEAYIKTHELEKQIAFAGQTDRPWDFVMRSQAVVVGSAMEAFGRVTVEAMKAGRIPIVSDTGAGPELITHNENGFLFDPEKEKQLAEIIKQIWLGTDFTEMTVQAKQYALAHFNSKLHGHELLKILTGLV”, the “soluble on expression in E. coli” value is given as “not soluble”.

For “MSLYSSENDYIILEDKTATGKKRDWKGKKRRTNLMAEHYEALQSKTGIPYYGKKAEKLCSCAECLSFKRDPETGKLKLYQAQFCKVRLCPMCAWRRSLKIAYHNKLIVEEANRQYGCGWIFLTLTVRNVEGDGLKPMIADMMKGWNRLFGYKRVKVATLGYFRALEITKNHEEDTYHPHFHVLLPVKKSYFTHNYIKQSEWTSLWKRAMKLDYTPIVDIRRVKGRAKIDAEQIESDVREAMMEQKAVLEISKYPVKDTDVVRGNKVTEDNLNTVFYLDDALSARRLIGYGGILKEIHKELNLGDAEDGDLVKIEEEDDEVANEAFEVMAYWHPGIKNYIIREGHHHHHH”, the “soluble on expression in E. coli” value was “not soluble”.

As for “MSLNIFDHYRQRYEAAKDEEFTLQEFLTTCRQDRSAYANAAERLLMAIGEPVMVDTAQDPRLSRLFSNRVIARYPAFEEFYGMEDAIEQIVSYLKHAAQGLEEKKQILYLLGPVGGGKSSLAERLKSLMQLVPIYVLSANGERSPVNDHPFCLFNPQEDAQILEKEYGIPRRYLGTIMSPWAAKRLHEFGGDITKFRVVKVWPSILQQIAIAKTEPGDENNQDISALVGKVDIRKLEHYAQNDPDAYGYSGALCRANQGIMEFVEMFKAPIKVLHPLLTATQEGNYNGTEGISALPFNGIILAHSNKSEWVTFRNNKNNEAFLDRVYIVKVPYCLRISEEIKIYEKLLNHSELTHAPCAPGTLETLSRFSILSRLKEPENSSIYSKMRVYDGESLKDTDPKAKSYQEYRDYAGVDEGMNGLSTRFAFKILSRVFNFDHVEVAANPVHLFYVLEQQIEVYWQEGHHHHHH”, the “soluble on expression in E. coli” value is given as “not soluble”.

As to “MFGLKVKNAEADTAKSNEKLQGAEATGSSTTSGSGQSTQRGGSSGDTKVKALQVAVKKKSGSQGNSGDQGTEQVELESNDLANAPIKRGSNPASPTQGSRLRHHPIQFGIWSIRHPHPLKAVACDRANSQGPPQMIRLDPHSVRCALCL”, the “soluble on expression in E. coli” value is “soluble”.

With “MSKQDEVIVVGKFGASYGIRGWLKVVSFTDQPESIFDYKPWLIQVKGEWVEFSVESWKRHKGLVCKLKGLDVREEAQTYTNLEIAVKADALPELSEDEFYWRELFGMEVVTTKGYALGVVDDIFETGSNDVLVVKANLKDAFGKKERLIPFIDEQVIKLIDREAQRIEVDWDPGFLEHHHHHH”, the “soluble on expression in E. coli” value is “soluble”.

Consider “MGHHHHHHGGHMSLAAQELLRDAFTRLIEHVDELTDGLTDQLACYRPTPSANSIAWLLWHSARVQDIQVAHVAGVEEVWTRDGWVDRFGLDLPRHDTGYGHRPEDVAKVRAPADLLSGYYHAVHKLTLEYIAGMTADELSRVVDTSWNPPVTVSARLVSIVDDCAQHLGQAAYLRGIAEGGS”, for which the “soluble on expression in E. coli” value is listed as “soluble”.

Take “MREEKGMDQKVYDAYLSILKAELVPALGCTEPITIAYASAIARECLGAFPDVIQIKASGNIIKNVKSVVVPGTNGMKGIEAAVAAGLVGGKSEKKLEVISEVTEEEKEQIRDLVEKEIIEVGIAGSDLLLDVQVQLKKGDDSVFVRIANAHTNVVLVEKNGVRLFEKAMDCGGDDAGLSQEKKLLSVEGILEFADQVKLEDIEDVISRQIAYNTAIADEGLAHNYGANIGKVLLQAYGDQDVRVRAKARAAAGSDARMSGCELPVIINSGSGNQGITASVPVIEYAKELKCGEEKMYRALVLSNLIAIHQKTGIGPLSAYCGAVSAGCASGAAIAYLNGGDLRTISHTIVNCLAIASGIVCDGAKASCAAKIGMSVEAGLLGYLMIEQDQQFRAGDGIVKKGVEETIRSVGRLGKDGMRETDREILEIMIGK”: the “soluble on expression in E. coli” value is recorded as “not soluble”.

For the sequence “MKSLQALFGGTFDPVHYGHLKPVETLANLIGLSRVIIMPNNVPPHRPQPEASSAQRKYMLELAIADKPLFTLDERELQRNAPSYTAQTLKAWREEQGPEAPLAFIIGQDSLLNFPTWHDYDTILDNTHLIVCRRPGYPLEMTQAQHQQWLEQHLTHTPDDLHQLPAGKIYLAETPWLNISATLIRERLEKGESCDDLLPENVLNYINQQGLYR”, the “soluble on expression in E. coli” value was “not soluble”.

Turning to “MGSDKIHHHHHHMQKKRFFDMRKYRFFSSIECDAMLTFKQMEALYWIVQLGSFDAAATRLNTTQSAVSKRIQELERAFDLTVFDRAHRSARLTDKGAELFDHAKELLEQRDRVVERMSSKEALVRHVRIGVTELTALTWLPRLIAAIQAAYPRVHVEAEVDLTATLRERLAADTIDLIVVPQIHAAESFAATVVGEVDNAWMCAPGFMPKRKTAISLTDVARFPLILQGTLSGTGHLYTRFLQEHCVAMQRVLTSNSLIAQIGLTLSGLGVSYLPKACVAHLVACEALDIVRTRPALPPVRYVALHRAERAHSLTADIVRLAAQACDFSTSLLDPGAHD”, the “soluble on expression in E. coli” value is “not soluble”.

As to “MSLYSTPLKKRIDYDRETFTASASLGGNRLRNRPRDDQNNGKPNLSSRSFLSERKTRKDVLNKYGEAGNTIESELRDVTTHVKISGLTSSEPLQLASEFVQDLSFRDRNTPILDNPDYYSKGLDYNFSDEVGGLGAFTPFQRQQVTNIPDEVLSQVSNTEIKSDMGIFLELNYCWITSDNKLILWNINNSSEYHCIDEIEHTILKVKLVKPSPNTFVSSVENLLIVATLFDIYILTISFNDRTHELNIFNTGLKVNVTGFNVSNIISYERTGQIFFTGATDGVNVWELQYNCSENLFNSKSNKICLTKSNLANLLPTKLIPSIPGGKLIQKVLEGDAGTEEETISQLEVDQSRGVLHTLSTKSIVRSYLITSNGLVGPVLIDAAHIRRGMNALGVKNSPLLSNRAFKIAKIVSISMCENNDLFLAVITTTGVRLYFKGSISRRSIGSLKLDSVKFPPTSISSSLEQNKSFIIGHHPLNTHDTGPLSTQKASSTYINTTCASTIISPGIYFTCVRKRANSGELSKGITNKALLENKEEHKLYVSAPDYGILKNYGKEGHHHHHH”, the “soluble on expression in E. coli” value is listed as “soluble”.

As for “MEDDMSVVDNIRFTFLYIEFYSMGRTWVYPESVIPYSIFRYIEKGKAELCIDGEEIIVEENQIVYIPQGCKMSCRALGESFEFYSLRFTTSVFYEGEDMLAEYYGIPRVSVNEGEDVYFKEIYKWVKKDSMVKKCFVRGNLDLLIGSLAMHGNKVDKVTGDFVETIEEKSLRDRNSKKNEQIDPRIYIVADYIILHPSEKYTPQKMAEMADLSKQRFSSLFKINMGKTPMEYVREIRLTTAARALLVSNDNINDIAYACGYEDTNYFIREFKSAFGFTPNQYRKVARE”, the “soluble on expression in E. coli” value is “not soluble”.

In the case of “MSLSYPYYIVDAFAEEVFKGNPAAVYVLEKWLPEAVMQNIAIENNLSETAFTVKEGQSYALRWFTPEREIDLCGHATLATAFVLFNYYSVAEETLHFTSQSGPLAVTKKEEYYYLDFPYILPERIPILPEYEAALGTKIYEAYLGRDLFFVLKDEETVAKITPDFSALKALDLGVGVIVTASGDSVDFVSRTFFPKLRINEDPVCGSAHANLIPYWGKRLNQTTLSAYQVSPRGGFLTCEVKENRVIIGGTAKLFAKGEAYLPVEGGSHHHHHH”, the “soluble on expression in E. coli” value is “soluble”.

“MFIKIFLITYRYKLTVISIIGGGTIGSSIAIPLKRSGFEVIVTRRNTAVLKHLESYGISVMSDNKTASKEADVVFLTLKPVDIIPEVRKIEENIRGKLLISMAAAIPLKLIKDAAPHSIVVRAMTNIAAKVGAGFTPFCVDDGDQEVAKRASSILSALGEVYLVEEKYMDALTALSGSGPAYILTIIEAMMYGGLKLGLPRDLALKASYQTVMGSAKLLAESGEHPSELKEKVITPGGTTIDGIYELEDARVRTAIMKAIEVSTMKANKISESIKKLEQLEHHHHHH”: the “soluble on expression in E. coli” value is recorded as “not soluble”.

“MVSSKLATPLSIQGEVIYPDDSGFDAIANIWDGRHLQRPSLIARCLSAGDVAKSVRYACDNGLEISVRSGGHNPNGYATNDGGIVLDLRLMNSIHIDTAGSRARIGGGVISGDLVKEAAKFGLAAVTGMHPKVGFCGLALNGGVGFLTPKYGLASDNILGATLVTATGDVIYCSDDERPELFWAVRGAGPNFGVVTEVEVQLYELPRKMLAGFITWAPSVSELAGLLTSLLDALNEMADHIYPSVFVGVDENRAPSVTVCVGHLGGLDIAERDIARLRGLGRTVSDSIAVRSYDEVVALNAEVGSFEDGMSNLWIDREIAMPNARFAEAIAGNLDKFVSEPASGGSVKLEIEGMPFGNPKRTPARHRDAMGVLALAEWSGAAPGSEKYPELARELDAALLRAGVTTSGFGLLNNNSEVTAEMVAEVYKPEVYSRLAAVKREYDPENRFRHNYNIDPEGS”: the “soluble on expression in E. coli” value is listed as “soluble”.

In the case of “MDKDLQSIQEVRDLLAAASKAFEEYSQFSQSQIDEIVKEICEEAQKHEVELAKLANEETGFGRWEDKVLKNRLASVGVYETIKDLKTRGIINDDKEKRITEIGVPMGIIAALIPSTNPTSTTIYKIMISLKAGNAVIVSPHPNAKDSILKTAEYLIRAAERKGAPKGLIGVIKTPTLQATQELMKHKKTSLILATGGEAMVKAAYSSGTPAIGVGPGNGPSFIERSADIRKAVKRIIDSKTFDNGVICASEQSIVTEEVIKHQVADELKRQGAYFLNKDEREKVGKILMRANNTMNPKIVGKTALYVAAMAGITVPVTTKVLISEETEVSHFNPYSREKLCPVLGFYTEETWEKACEKCIEILQNEGIGHTMSMHTNNENIIREFSLKKPVSRLLVNTPAALGGVGATTNLIPAFTLGCGTVGGSATSDNIGPLNLINIRRVAYGTKELEELKNEGVCTCACELNTDTSNSKVSENDIESIIRQVLDGIYKK”, the “soluble on expression in E. coli” value is on record as “not soluble”.
